Results: US12729368B2, “Methods and compositions for generating oligodendrocyte progenitor cells” (Trailhead Biosystems Inc., priority 2022, dated 2026)
“And” between values parts separate entries of the source, which are not always exact repeats. Equal values may be shown once.

B1: NT-3: TrkC agonist (protein, UniProt P20783 139-257, looked up)
Neurotrophin-3: YAEHKSHRGEYSVCDSESLWVTDKSSAIDIRGHQVTVLGEIKTGNSPVKQYFYETRCKEARPVKNGCRGIDDKHWNSQCKTSQTYVRALTSENNKLVGWRWIRIDTSCVCALSRKIGRT
B2: Activin A: an activator of one of the receptors of TGF-b superfamily (protein, UniProt P08476 311-426, looked up)
Inhibin beta A chain: GLECDGKVNICCKKQFFVSFKDIGWNDWIIAPSGYHANYCEGECPSHIAGTSGSSLSFHSTVINHYRMRGHSPFANLKSCCVPTKLRPMSMLYYDDGQNIIKKDIQNMIVEECGCS

Columns and labels:
Assay type in all cases: cell-based, human
OPCs [1] = experiment: HD-DoE 12-factor model for stage 4 on OPCs, 6 days in culture; settings: positive
Method: To engineer the recipe of stage 4 of differentiation, 48 or 96 different combinations of effectors generated using Design-of-Experiments compression through D-optimality were robotically prepared. The effector combinations were prepared in a basal media and were subsequently added to the cells, which were treated with the stage 1, stage 2 and stage 3 differentiation media as described in the earlier examples to generate OPCs. […] Solutions within the tested space could then be explored to address desirability. […] Benarroch (2009) Neurology 72:1779-1785; Shi et al. (2019) Exp Ther Med, 18:1258-1266).

OPCs [2] = experiment: HD-DoE 8-factor model for stage 4 on OPCs; settings: optimized for maximal expression of CNP at 1339; positive
Method: To engineer the recipe of stage 4 of differentiation, 48 or 96 different combinations of effectors generated using Design-of-Experiments compression through D-optimality were robotically prepared. The effector combinations were prepared in a basal media and were subsequently added to the cells, which were treated with the stage 1, stage 2 and stage 3 differentiation media as described in the earlier examples to generate OPCs. […] Solutions within the tested space could then be explored to address desirability.

stage 2 early-OPCs [3] = experiment: HD-DoE 12-factor model for stage 3 (version 1) on stage 2 early-OPCs; settings: positive
Method: In another model, the effects of Activin A and TTNPB along with LDN193189, MHY1485, PDGF-AA, AICAR, FGF2, CHIR99021, DBZ, MK2206, Purmorphamine and T3+T4 were tested on gene profile of differentiating cells. When this model was optimized for maximum expression of SOX10 at 54.7, we observed Activin A again had positive regulatory impact on its expression, with factor contribution of 4.7. Other positive factors included MK2206, with the highest factor contribution at 16.2, MHY1485 at 11.49, CHIR99021 at 9.6, DBZ at 9.3, FGF2 at 3.6 and PDGF-AA, with factor contribution less than 3 (FIG. 20).
In this model, we also investigated the conditions of expression of another important OPC gene, CSPG4 (Goldman and Kuypers (2015) Development 142:3983-95: van Tilborg et al. (2018) Glia 66:221-238).
Dynamic profile analysis was used to better assess the impact of the factors on our selected genes and find the combination set that can optimize their expression (FIG. 22). According to this analysis, even though Activin A has a positive effect on SOX10, it decreases level of PDGFRa and OLIG1. […]

stage 2 early-OPCs [4] = experiment: HD-DoE 8-factor model for stage 3 (version 1) on stage 2 early-OPCs; settings: optimized for maximum expression of OLIG1 at 256; positive impact
Method: To further differentiate the cells to an oligodendrocyte progenitor identity, additional HD-DoE experiments were performed on the cells that were cultured in stage 1 and stage 2 differentiation media. After 3 days, gene expression of cells in different combinatorial conditions were investigated. At this time, we focused on maximal expression of signature oligodendrocyte progenitor genes such as SOX10, OLIG1 and PDGFRa (Goldman and Kuypers (2015) Development 142:3983-95; Marques et al. (2016) Science 352:1326-1329). In one 8-factor model, individual and combinatorial effects of LDN193189, SUN 11602, Activin A, Biotin, TTNPB, Isoproterenol, linoleic acid and T3+T4 were tested.
The same model was also optimized for maximum expression of PDGFRa at 3510.9. Two factor specifically, TTNPB and Linoleic acid determined the expression level of PDGFRa with factor contribution of 71.6 and 22.1, respectively (FIG. 17). […] The model was also optimized for highest expression of SOX10 at 18.8. In this optimization, TTNPB was the only input that could elevate the expression level of the selected gene (FIG. 18).
Dynamic profile analysis was utilized to explore combination sets that can optimize expression of all three selected genes. […]

Molecule | factor contribution (OPCs [1]; optimized for CNP at 1790) | factor contribution (OPCs [1]; optimized for PLP1 at 3600) | factor contribution (OPCs [2]) | factor contribution (stage 2 early-OPCs [3]; optimized for maximum expression of CSPG4 at 38.6) | factor contribution (stage 2 early-OPCs [3]; optimized for maximum expression of SOX10 at 54.7) | factor contribution (stage 2 early-OPCs [4])
B1 | 13 and 13.3 | 7 | 24 |  |  | 
B2 |  |  |  | 9.3 | 4.7 | 50.2
